Measurements reported in publication PMC10641899, “Identification of HuR–RNA Interfering Compounds by Dynamic Combinatorial Chemistry and Fluorescence Polarization”.

Target: HuR RRM1+2 (RRM1/2) (UniProt Q15717 1-186)
Assay: fluorescence polarization; 2.4 uM HuR RRM1/2, 45 nM RNA, 15% DMSO; complex 105 mP vs free RNA 35 mP; FP: PBS (20 mM sodium phosphate, 150 mM NaCl, 1 mM DTT, 0.05% Pluronic-127, 15% DMSO), 293 K; pH not stated
Conditions: protein: recombinant; tags: N-terminal His6-TEV, tag cleaved and removed; label: 5'-FAM; single strand

Sequence of HuR RRM1+2 (RRM1/2) (Q15717 1-186): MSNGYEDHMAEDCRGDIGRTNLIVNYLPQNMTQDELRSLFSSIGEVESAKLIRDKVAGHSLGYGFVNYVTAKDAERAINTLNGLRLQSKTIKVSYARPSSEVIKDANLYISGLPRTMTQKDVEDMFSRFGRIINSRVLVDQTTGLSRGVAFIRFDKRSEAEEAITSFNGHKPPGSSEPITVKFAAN

UAUUUAUUUA (ssRNA) [5'-FAM ARE RNA probe]
binding result: binds
